Assay results as given in patent US20260209362A1 (VIB VZW, published 2026).

T1: human IL-12Rβ2 (human, UniProt Q99665 24-862)
T1 construct: Expressed on HEK293T cells transiently transfected with a pcDNA3 plasmid (Genscript clone OHu21785); also called hIL-12RB2; IL-12 receptor β2 subunit
T1 sequence: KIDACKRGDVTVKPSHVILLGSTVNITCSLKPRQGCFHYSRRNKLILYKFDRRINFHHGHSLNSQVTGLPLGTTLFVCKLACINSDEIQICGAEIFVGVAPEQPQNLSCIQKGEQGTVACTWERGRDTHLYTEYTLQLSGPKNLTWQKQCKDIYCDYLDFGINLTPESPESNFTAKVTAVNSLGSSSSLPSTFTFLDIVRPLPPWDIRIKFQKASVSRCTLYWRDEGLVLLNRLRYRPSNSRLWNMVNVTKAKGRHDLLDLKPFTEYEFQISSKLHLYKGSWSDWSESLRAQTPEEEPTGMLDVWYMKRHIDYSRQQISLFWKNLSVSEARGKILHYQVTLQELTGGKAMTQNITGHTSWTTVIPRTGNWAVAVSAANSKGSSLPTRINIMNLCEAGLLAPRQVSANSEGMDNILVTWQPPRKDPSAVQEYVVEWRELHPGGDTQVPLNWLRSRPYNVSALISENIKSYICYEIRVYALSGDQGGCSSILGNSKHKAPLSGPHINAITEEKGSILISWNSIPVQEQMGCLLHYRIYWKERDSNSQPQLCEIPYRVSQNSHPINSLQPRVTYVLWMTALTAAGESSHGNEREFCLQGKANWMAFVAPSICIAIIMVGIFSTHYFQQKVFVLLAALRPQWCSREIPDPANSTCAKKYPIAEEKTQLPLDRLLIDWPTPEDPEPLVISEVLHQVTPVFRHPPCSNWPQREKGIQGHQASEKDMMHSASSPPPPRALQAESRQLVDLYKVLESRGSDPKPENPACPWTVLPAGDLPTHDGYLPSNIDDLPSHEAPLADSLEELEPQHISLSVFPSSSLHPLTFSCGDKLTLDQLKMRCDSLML

T2: mouse IL-12Rβ2 (mouse, UniProt P97378 24-874)
T2 construct: Expressed on HEK293T cells transiently transfected with a pcDNA3 plasmid (Genscript clone OMu01776); also called mIL-12RB2; NP_032380.1
T2 sequence: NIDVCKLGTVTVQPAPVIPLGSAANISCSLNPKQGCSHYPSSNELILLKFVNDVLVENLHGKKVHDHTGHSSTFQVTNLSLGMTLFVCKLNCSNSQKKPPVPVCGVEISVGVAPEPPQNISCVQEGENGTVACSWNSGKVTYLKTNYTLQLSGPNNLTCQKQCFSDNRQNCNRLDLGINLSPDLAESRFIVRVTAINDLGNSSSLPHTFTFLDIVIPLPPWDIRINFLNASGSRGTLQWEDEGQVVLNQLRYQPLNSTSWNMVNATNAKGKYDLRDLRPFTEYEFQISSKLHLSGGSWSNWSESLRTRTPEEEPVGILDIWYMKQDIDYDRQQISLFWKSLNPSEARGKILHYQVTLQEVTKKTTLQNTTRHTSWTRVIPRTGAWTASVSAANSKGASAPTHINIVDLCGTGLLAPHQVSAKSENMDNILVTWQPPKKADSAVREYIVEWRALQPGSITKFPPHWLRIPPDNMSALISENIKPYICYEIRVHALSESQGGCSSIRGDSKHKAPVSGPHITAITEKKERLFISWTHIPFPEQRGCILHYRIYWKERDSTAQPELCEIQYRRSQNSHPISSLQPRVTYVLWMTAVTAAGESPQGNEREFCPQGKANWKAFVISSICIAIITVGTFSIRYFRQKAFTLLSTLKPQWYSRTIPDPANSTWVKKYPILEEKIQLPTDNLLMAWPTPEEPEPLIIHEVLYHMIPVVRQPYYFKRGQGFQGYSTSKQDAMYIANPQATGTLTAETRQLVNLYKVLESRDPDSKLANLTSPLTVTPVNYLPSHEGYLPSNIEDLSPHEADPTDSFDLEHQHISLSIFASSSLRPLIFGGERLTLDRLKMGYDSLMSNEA


How the values were obtained:
human IL-12Rβ2 = molecular target: T1, human IL-12Rβ2; assay: flow cytometry, P.E. on transfected HEK293T cells
mouse IL-12Rβ2 = molecular target: T2, mouse IL-12Rβ2; assay: flow cytometry, P.E. on transfected HEK293T cells

Binder | % cells bound (human IL-12Rβ2) [%] | dMFI (human IL-12Rβ2) | % cells bound (mouse IL-12Rβ2) [%] | dMFI (mouse IL-12Rβ2)
anti-IL-12Rβ2 VHH clone 3CRHM49 (VHH, not shown: small tags and cut ends, periplasmic extract; also called 21058) VHH: QVQLQESGGGLVQAGGSLRLSCAASGRTFSNYAMAWFRQAPGTEREFVAGLSGSGGDTAFYDNSVMGRFTISRDSAKNTMWLQINNLKPEDTAVYYCAAATHVVVSYGLVRRRGTYDYWGQGTQVTVSS | 36 | 759 | 17.1 | 421
anti-IL-12Rβ2 VHH clone 3CRHM14 (VHH, not shown: small tags and cut ends, periplasmic extract) VHH: QVQLQESGGGLVQAGGSLRLSCAASGRTFSNYAMAWFRQAPGTEREFVAGLSGSGGDTEFYDDSVKGRFAISRDSAKNTVWLQMNSLKPEDTAVYYCAAATHVVVHYGLVRRRGTYDYWGQGTQVTVSS | 35.8 | 689 | 18.6 | 412
anti-IL-12Rβ2 VHH clone 3CRHM12 (VHH, not shown: small tags and cut ends, periplasmic extract) VHH: QVQLQESGGGSVQAGGSLRLSCAVSGRTVSDYAMGWFRQAPGKEREFVAAMSSSETTVYPNSVKGRITISRDNAKNAVYLQMNALKPEDTAVYYCSMGPIVTFQGLARQNEYHYWGQGTQVTVSS | 30.4 | 495 | 1.21 | 103
anti-IL-12Rβ2 VHH clone 3CAHM40 (VHH, not shown: small tags and cut ends, periplasmic extract) VHH: QVQLQESGGGSVQAGGSLRLSCAVSGRTVSDYAMGWFRQAPGKEREFVAAMSSSETTVYPNSMKGRITISRDNAKNAVYLQLNALKPEDTAVYYCSMGPIATFQGLARQNEYHYWGQGTQVTVSS | 32.7 | 544 | 1.02 | 105

Other lines, results leading:

% cells bound (human IL-12Rβ2) [%] | dMFI (human IL-12Rβ2) | % cells bound (mouse IL-12Rβ2) [%] | dMFI (mouse IL-12Rβ2) | Binder
35.3 | 694 | 17.2 | 470 | anti-IL-12Rβ2 VHH clone 3CRHM200 (VHH, not shown: small tags and cut ends, periplasmic extract; also called 21064) VHH: QVQLQESGGGLVQPGGSLRLSCAASGRTFSNYAMAWFRQAPGTEREFVAGLSGSGGDTAFYDNSVMGRFTISRDSAKNTMWLQINNLKPEDTAVYYCAAATHVVVSYGLVRRRGTYDYWGQGTQVTVSS
36.7 | 767 | 15.3 | 369 | anti-IL-12Rβ2 VHH clone 3CRHM18 (VHH, not shown: small tags and cut ends, periplasmic extract) VHH: QVQLQESGGGLVQDGGSLRLSCAASGRTFSNYAMAWFRQAPGTEREFVAGLSGSGGDTAFYDNSVMGRFTISRDSAKNTMWLQINNLKPEDTAVYYCAAATHVVVSYGLVRKRGTYDYWGQGTQVTVSS
37.3 | 826 | 16 | 425 | anti-IL-12Rβ2 VHH clone 3CRHM35 (VHH, not shown: small tags and cut ends, periplasmic extract; also called 21057) VHH: QVQLQESGGGLVQAGGSLRLSCAASGRTFSNYAMAWFRQAPGTEREFVAGLSGSGGDTAFYDNSVMGRFTISRDSAKNTMWLQINNLKPEDTAVYYCAAATHVVVNYGLVRRRGTYDYWGQGTQVTVSS
24.4 | 558 | 10.7 | 351 | anti-IL-12Rβ2 VHH clone 3CRHM99 (VHH, not shown: small tags and cut ends, periplasmic extract; also called 21062) VHH: QVQLQESGGGLVQPGGSLRLSCAASGISSSRLHVGWFRQSPGKEREFVAAISLSGGTQAYTDSVKGRFTISGDNVKNTAYLQMNSLRPEDTAVYYCAARERFIWTWSDLTYDYWGQGTQVTVSS
